Experimental data as given in paper PMC8713425 (Journal of medicinal chemistry, 2021).
Substitutions are numbered along the chain they refer to. Names and notes keep the numbering of the source. One block for each binder: values may come before it.

Molecular target: LGR4 (leucine-rich repeat containing, G protein-coupled receptor 4) (UniProt Q9BXB1 25-951)
Assay: whole-cell binding assay

Kd: 3.2 nM
B1: R4Fu-WT (wild-type RSPO4 furin domain fused to human IgG1 Fc) (Fc fusion)
chain: VGTGLGGNCTGCIICSEENGCSTCQQRLFLFIRREGIRQYGKCLHDCPPGYFGIRGQEVNRCKKCGATCESCFSQDFCIRCKRQFYLYKGKCLPTCPPSGGGGSGGGGSGGGGS

Kd: 6.2 nM
B2: R4Fu-Q65R (RSPO4 furin domain Q65R fused to human IgG1 Fc) (Fc fusion)
chain: B1 chain with Q39R
